Measurements from paper PMC13250567, “U1 snRNP and RNA polymerase II interaction is predominantly mediated by Prp40 rather than U1-70K in yeast” (Nucleic Acids Research, 2026).
Values belong to the binder of their own block, whether it stands above or below them.

Key:
Details in all cases: both partners purified
[1] = target: T1, yeast RNA polymerase II, purified (CBP tag on RPB3) (yeast, UniProt P04050 1-1733; P08518 1-1224; P16370 1-318; P20433 1-221; P20434 1-215; P20435 …); test: pull-down; GST fusion proteins on glutathione-Sepharose incubated with 1 μM purified pol II, 1.5 h, 4 °C; cleaved off with PreScission protease; Western blot with 8WG16 (RPB1) and anti-CBP
T1 construct: RPB1, largest subunit of yeast pol II, wild type with its CTD (26 heptapeptide repeats); RPB2 subunit of yeast pol II; RPB3 subunit of yeast pol II, TAP-tagged (CBP-TEV-protein A); CBP is left after TEV cleavage; RPB4 subunit of yeast pol II; RPB5 subunit of yeast pol II; RPB6 subunit of yeast pol II; RPB7 subunit of yeast pol II; RPB8 subunit of yeast pol II; RPB9 subunit of yeast pol II; RPB10 …

[2] = target: T1, yeast RNA polymerase II, purified (CBP …); test: pull-down; protein A-tagged protein on IgG resin incubated with 0.4 μM purified pol II in 20 mM Tris–HCl pH 8.0, 150 mM NaCl, 0.5 mM DTT, 1.5 h, 4 °C; Western blot with 8WG16 (RPB1) and anti-CBP (RPB3-CBP)
[3] = target: T1, yeast RNA polymerase II, purified (CBP …); test: cross-linking; purified pol II and Prp40 FF4-6 at ~1:1.5 molar ratio in 20 mM HEPES pH 7.5, 150 mM NaCl, 1 mM MgCl2, 0.5 mM TCEP; 1 mM DSSO or 2 mM SDA, 1 h, 4 °C; LC-MS/MS

binding result [1]: binds
B1: GST-fused Prp40 FF1 (134–189) (domain or fragment, S. cerevisiae, UniProt P33203 134-189, looked up)
chain: EAEKEFITMLKENQVDSTWSFSRIISELGTRDPRYWMVDDDPLWKKEMFEKYLSNR
notes: yeast Prp40 residues 134–189 (FF1); also called GST-FF1; source: E. coli (pGEX-6p-1), purified as GST fusion protein; not shown: GST, N-terminal, kept

binding result [1]: binds
B2: GST-fused Prp40 FF6 ext (488–583) (domain or fragment, S. cerevisiae, UniProt P33203 488-583, looked up)
chain: NERRILEQKKHYFWLLLQRTYTKTGKPKPSTWDLASKELGESLEYKALGDEDNIRRQIFEDFKPESSAPTAESATANLTLTASKKRHLTPAVELDY
notes: yeast Prp40 residues 488–583 (FF6 and the extension downstream of it, to the C-terminus); also called 6 extension; FF6 extension; source: E. coli (pGEX-6p-1), purified as GST fusion protein; not shown: GST, N-terminal, kept

binding result [1]: binds
B3: GST-fused Prp40 FF2 (204–269) (domain or fragment, S. cerevisiae, UniProt P33203 204-269, looked up)
chain: FKEAFQKMLQNNSHIKYYTRWPTAKRLIADEPIYKHSVVNEKTKRQTFQDYIDTLIDTQKESKKKL
notes: yeast Prp40 residues 204–269 (FF2); also called GST-FF2; source: E. coli (pGEX-6p-1), purified as GST fusion protein; not shown: GST, N-terminal, kept

binding result [1]: binds
B4: GST-fused Prp40 FF4 (351–415) (domain or fragment, S. cerevisiae, UniProt P33203 351-415, looked up)
chain: NYTRDRIARDNFKSLLREVPIKIKANTRWSDIYPHIKSDPRFLHMLGRNGSSCLDLFLDFVDEQR
notes: yeast Prp40 residues 351–415 (FF4); also called GST-FF4; source: E. coli (pGEX-6p-1), purified as GST fusion protein; not shown: GST, N-terminal, kept

binding result [2]: binds
B5: protein A-tagged Prp40 (full length) (natural protein, S. cerevisiae, UniProt P33203 1-583, looked up)
chain: MSIWKEAKDASGRIYYYNTLTKKSTWEKPKELISQEELLLRENGWKAAKTADGKVYYYNPTTRETSWTIPAFEKKVEPIAEQKHDTVSHAQVNGNRIALTAGEKQEPGRTINEEESQYANNSKLLNVRRRTKEEAEKEFITMLKENQVDSTWSFSRIISELGTRDPRYWMVDDDPLWKKEMFEKYLSNRSADQLLKEHNETSKFKEAFQKMLQNNSHIKYYTRWPTAKRLIADEPIYKHSVVNEKTKRQTFQDYIDTLIDTQKESKKKLKTQALKELREYLNGIITTSSSETFITWQQLLNHYVFDKSKRYMANRHFKVLTHEDVLNEYLKIVNTIENDLQNKLNELRLRNYTRDRIARDNFKSLLREVPIKIKANTRWSDIYPHIKSDPRFLHMLGRNGSSCLDLFLDFVDEQRMYIFAQRSIAQQTLIDQNFEWNDADSDEITKQNIEKVLENDRKFDKVDKEDISLIVDGLIKQRNEKIQQKLQNERRILEQKKHYFWLLLQRTYTKTGKPKPSTWDLASKELGESLEYKALGDEDNIRRQIFEDFKPESSAPTAESATANLTLTASKKRHLTPAVELDY
notes: yeast Prp40, full length, 583 residues; A TEV site lies between protein A and Prp40; also called ProtA-Prp40; source: yeast BCY123 (pRS414/GPD-protA-TEV-PRP40), purified on IgG resin; not shown: protein A, N-terminal, kept

binding result [1]: binds
B6: GST-fused Prp40 FF3 (270–335) (domain or fragment, S. cerevisiae, UniProt P33203 270-335, looked up)
chain: KTQALKELREYLNGIITTSSSETFITWQQLLNHYVFDKSKRYMANRHFKVLTHEDVLNEYLKIVNT
notes: yeast Prp40 residues 270–335 (FF3); also called GST-FF3; source: E. coli (pGEX-6p-1), purified as GST fusion protein; not shown: GST, N-terminal, kept

binding result [3]: binds
B7: Prp40 FF4-6 (351–552) (domain or fragment, S. cerevisiae, UniProt P33203 351-552, looked up)
chain: NYTRDRIARDNFKSLLREVPIKIKANTRWSDIYPHIKSDPRFLHMLGRNGSSCLDLFLDFVDEQRMYIFAQRSIAQQTLIDQNFEWNDADSDEITKQNIEKVLENDRKFDKVDKEDISLIVDGLIKQRNEKIQQKLQNERRILEQKKHYFWLLLQRTYTKTGKPKPSTWDLASKELGESLEYKALGDEDNIRRQIFEDFKPE
notes: yeast Prp40 residues 351–552 (FF4 to FF6); also called Prp40 FF4-6 protein; source: E. coli (pGEX-6p-1), purified
